Data published in patent US20170081400A1 (CEPHALON, published 2017).

T1: human TL1A extracellular domain with N-terminal HIS and FLAG tag (human, UniProt O95150 72-251)
T1 construct: the whole entry is named
T1 sequence: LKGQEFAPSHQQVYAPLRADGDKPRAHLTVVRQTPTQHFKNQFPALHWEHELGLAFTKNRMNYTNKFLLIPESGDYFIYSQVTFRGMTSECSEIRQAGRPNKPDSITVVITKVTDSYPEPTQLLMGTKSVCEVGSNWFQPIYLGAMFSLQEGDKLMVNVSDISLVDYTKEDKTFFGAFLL


Columns and labels:
[1] = biological target: T1, human TL1A extracellular domain with …; assay: SPR Run 6, purified Ab captured on Protein A, TL1A 5 ug/mL, timepoint 44
Excerpt: (§1) 1.5. Antibody expression and antigen binding as determined by SPR. Using a CM5 sensor chip (GE Healthcare) Protein A (Pierce) was coupled to the chip surface using an amine coupling kit (GE Healthcare). Protein A was coupled on flow cell 1 and 2 (or alternatively 3 and 4) using a BIACORE® T200. […] The amount of supernatant or purified protein (as well as the concentration) injected during the capture stage varied between runs and is specified in the header of the Tables 3-11. At the end of injection of the supernatant or purified antibody the change in response units was measured. This value was reported as Capture Level in Tables 3-11. […] The response units were measured prior to the end of the dissociation phase. […] The sensorgrams were double referenced (flow cell 2 is subtracted from flow cell 1 and a buffer blank). As there were a large number of antibody variants to screen, these were screened across different runs (Tables 3-11). […] A summary of the conditions used in each run is below:
(§2) 2.1. […] In some experiment the antibodies were purified using Protein A chromatography (See 1.4) and purified antibodies were used in BIACORE® (GE Healthcare) experiments.

[2] = biological target: T1, human TL1A extracellular domain with …; assay: SPR Run 6, purified Ab captured on Protein A, TL1A 5 ug/mL, timepoint 170
Excerpt: as §1, §2

| Binder | TL1A Binding Level (Early) [1] [RU] | TL1A Binding Level (Late) [2] [RU] |
| --- | --- | --- |
| 320-449 (antibody, human IgG1, name in Kabat numbering, V domains shown, human IgG1, lambda) VH: QVQLVQSGAEVKKPGASVKVSCKASGYTFTSYHINWVRQAPGQGLEWMGWLNPNSGNTGYAQKFQGRVTMTADRSTSTAYMELSSLRSEDTAVYYCAREVPETAAFEYWGQGTLVTVSS VL: QSVLTQPPSVSGAPGQRVTISCTSSSSDIGAGLGVHWYQQLPGTAPKLLIEGYYNRPSGVPDRFSGSKSGTSASLTITGLLPEDEGDYYCQSYDGTLSALFGGGTKLTVLG | 76 | 59 |
| 320-456 (antibody, human IgG1, name in Kabat numbering, V domains shown, human IgG1, lambda) VH: QVQLVQSGAEVKKPGASVKVSCKASGYTFTSYDQNWVRQAPGQGLEWMGWLNPNSGNTGYAQKFQGRVTMTADRSTSTAYMELSSLRSEDTAVYYCAREVPETAAFEYWGQGTLVTVSS VL: QSVLTQPPSVSGAPGQRVTISCTSSSSDIGAGLGVHWYQQLPGTAPKLLIEGYYNRPSGVPDRFSGSKSGTSASLTITGLLPEDEGDYYCQSYDGTLSALFGGGTKLTVLG | 52 | 46 |
| 320-455 (antibody, human IgG1, name in Kabat numbering, V domains shown, human IgG1, lambda) VH: QVQLVQSGAEVKKPGASVKVSCKASGYTFTSYDSNWVRQAPGQGLEWMGWLNPNSGNTGYAQKFQGRVTMTADRSTSTAYMELSSLRSEDTAVYYCAREVPETAAFEYWGQGTLVTVSS VL: QSVLTQPPSVSGAPGQRVTISCTSSSSDIGAGLGVHWYQQLPGTAPKLLIEGYYNRPSGVPDRFSGSKSGTSASLTITGLLPEDEGDYYCQSYDGTLSALFGGGTKLTVLG | 27 | 23 |
| 320-452 (antibody, human IgG1, name in Kabat numbering, V domains shown, human IgG1, lambda) VH: QVQLVQSGAEVKKPGASVKVSCKASGYTFTSYWINWVRQAPGQGLEWMGWLNPNSGNTGYAQKFQGRVTMTADRSTSTAYMELSSLRSEDTAVYYCAREVPETAAFEYWGQGTLVTVSS VL: QSVLTQPPSVSGAPGQRVTISCTSSSSDIGAGLGVHWYQQLPGTAPKLLIEGYYNRPSGVPDRFSGSKSGTSASLTITGLLPEDEGDYYCQSYDGTLSALFGGGTKLTVLG | 84 | 78 |
| 320-451 (antibody, human IgG1, name in Kabat numbering, V domains shown, human IgG1, lambda) VH: QVQLVQSGAEVKKPGASVKVSCKASGYTFTSYLINWVRQAPGQGLEWMGWLNPNSGNTGYAQKFQGRVTMTADRSTSTAYMELSSLRSEDTAVYYCAREVPETAAFEYWGQGTLVTVSS VL: QSVLTQPPSVSGAPGQRVTISCTSSSSDIGAGLGVHWYQQLPGTAPKLLIEGYYNRPSGVPDRFSGSKSGTSASLTITGLLPEDEGDYYCQSYDGTLSALFGGGTKLTVLG | 19 | 8 |
| 320-454 (antibody, human IgG1, name in Kabat numbering, V domains shown, human IgG1, lambda) VH: QVQLVQSGAEVKKPGASVKVSCKASGYTFTSYDANWVRQAPGQGLEWMGWLNPNSGNTGYAQKFQGRVTMTADRSTSTAYMELSSLRSEDTAVYYCAREVPETAAFEYWGQGTLVTVSS VL: QSVLTQPPSVSGAPGQRVTISCTSSSSDIGAGLGVHWYQQLPGTAPKLLIEGYYNRPSGVPDRFSGSKSGTSASLTITGLLPEDEGDYYCQSYDGTLSALFGGGTKLTVLG | 43 | 37 |
| 320-458 (antibody, human IgG1, name in Kabat numbering, V domains shown, human IgG1, lambda) VH: QVQLVQSGAEVKKPGASVKVSCKASGYTFTSYDHNWVRQAPGQGLEWMGWLNPNSGNTGYAQKFQGRVTMTADRSTSTAYMELSSLRSEDTAVYYCAREVPETAAFEYWGQGTLVTVSS VL: QSVLTQPPSVSGAPGQRVTISCTSSSSDIGAGLGVHWYQQLPGTAPKLLIEGYYNRPSGVPDRFSGSKSGTSASLTITGLLPEDEGDYYCQSYDGTLSALFGGGTKLTVLG | 59 | 53 |
| 320-453 (antibody, human IgG1, name in Kabat numbering, V domains shown, human IgG1, lambda) VH: QVQLVQSGAEVKKPGASVKVSCKASGYTFTSYYINWVRQAPGQGLEWMGWLNPNSGNTGYAQKFQGRVTMTADRSTSTAYMELSSLRSEDTAVYYCAREVPETAAFEYWGQGTLVTVSS VL: QSVLTQPPSVSGAPGQRVTISCTSSSSDIGAGLGVHWYQQLPGTAPKLLIEGYYNRPSGVPDRFSGSKSGTSASLTITGLLPEDEGDYYCQSYDGTLSALFGGGTKLTVLG | 111 | 104 |
| 320-459 (antibody, human IgG1, name in Kabat numbering, V domains shown, human IgG1, lambda) VH: QVQLVQSGAEVKKPGASVKVSCKASGYTFTSYDKNWVRQAPGQGLEWMGWLNPNSGNTGYAQKFQGRVTMTADRSTSTAYMELSSLRSEDTAVYYCAREVPETAAFEYWGQGTLVTVSS VL: QSVLTQPPSVSGAPGQRVTISCTSSSSDIGAGLGVHWYQQLPGTAPKLLIEGYYNRPSGVPDRFSGSKSGTSASLTITGLLPEDEGDYYCQSYDGTLSALFGGGTKLTVLG | 20 | 17 |

Second part, the binder after the results:

| TL1A Binding Level (Early) [1] [RU] | TL1A Binding Level (Late) [2] [RU] | Binder |
| --- | --- | --- |
| 87 | 82 | 320-461 (antibody, human IgG1, name in Kabat numbering, V domains shown, human IgG1, lambda) VH: QVQLVQSGAEVKKPGASVKVSCKASGYTFTSYDWNWVRQAPGQGLEWMGWLNPNSGNTGYAQKFQGRVTMTADRSTSTAYMELSSLRSEDTAVYYCAREVPETAAFEYWGQGTLVTVSS VL: QSVLTQPPSVSGAPGQRVTISCTSSSSDIGAGLGVHWYQQLPGTAPKLLIEGYYNRPSGVPDRFSGSKSGTSASLTITGLLPEDEGDYYCQSYDGTLSALFGGGTKLTVLG |
| 69 | 61 | 320-469 (antibody, human IgG1, name in Kabat numbering, V domains shown, human IgG1, lambda) VH: QVQLVQSGAEVKKPGASVKVSCKASGYTFTSYDILWVRQAPGQGLEWMGWLNPNSGNTGYAQKFQGRVTMTADRSTSTAYMELSSLRSEDTAVYYCAREVPETAAFEYWGQGTLVTVSS VL: QSVLTQPPSVSGAPGQRVTISCTSSSSDIGAGLGVHWYQQLPGTAPKLLIEGYYNRPSGVPDRFSGSKSGTSASLTITGLLPEDEGDYYCQSYDGTLSALFGGGTKLTVLG |
| 92 | 78 | 320-465 (antibody, human IgG1, name in Kabat numbering, V domains shown, human IgG1, lambda) VH: QVQLVQSGAEVKKPGASVKVSCKASGYTFTSYDIQWVRQAPGQGLEWMGWLNPNSGNTGYAQKFQGRVTMTADRSTSTAYMELSSLRSEDTAVYYCAREVPETAAFEYWGQGTLVTVSS VL: QSVLTQPPSVSGAPGQRVTISCTSSSSDIGAGLGVHWYQQLPGTAPKLLIEGYYNRPSGVPDRFSGSKSGTSASLTITGLLPEDEGDYYCQSYDGTLSALFGGGTKLTVLG |
| 114 | 105 | 320-460 (antibody, human IgG1, name in Kabat numbering, V domains shown, human IgG1, lambda) VH: QVQLVQSGAEVKKPGASVKVSCKASGYTFTSYDLNWVRQAPGQGLEWMGWLNPNSGNTGYAQKFQGRVTMTADRSTSTAYMELSSLRSEDTAVYYCAREVPETAAFEYWGQGTLVTVSS VL: QSVLTQPPSVSGAPGQRVTISCTSSSSDIGAGLGVHWYQQLPGTAPKLLIEGYYNRPSGVPDRFSGSKSGTSASLTITGLLPEDEGDYYCQSYDGTLSALFGGGTKLTVLG |
| 93 | 86 | 320-466 (antibody, human IgG1, name in Kabat numbering, V domains shown, human IgG1, lambda) VH: QVQLVQSGAEVKKPGASVKVSCKASGYTFTSYDIDWVRQAPGQGLEWMGWLNPNSGNTGYAQKFQGRVTMTADRSTSTAYMELSSLRSEDTAVYYCAREVPETAAFEYWGQGTLVTVSS VL: QSVLTQPPSVSGAPGQRVTISCTSSSSDIGAGLGVHWYQQLPGTAPKLLIEGYYNRPSGVPDRFSGSKSGTSASLTITGLLPEDEGDYYCQSYDGTLSALFGGGTKLTVLG |
| 58 | 52 | 320-462 (antibody, human IgG1, name in Kabat numbering, V domains shown, human IgG1, lambda) VH: QVQLVQSGAEVKKPGASVKVSCKASGYTFTSYDYNWVRQAPGQGLEWMGWLNPNSGNTGYAQKFQGRVTMTADRSTSTAYMELSSLRSEDTAVYYCAREVPETAAFEYWGQGTLVTVSS VL: QSVLTQPPSVSGAPGQRVTISCTSSSSDIGAGLGVHWYQQLPGTAPKLLIEGYYNRPSGVPDRFSGSKSGTSASLTITGLLPEDEGDYYCQSYDGTLSALFGGGTKLTVLG |
| 44 | 24 | 320-467 (antibody, human IgG1, name in Kabat numbering, V domains shown, human IgG1, lambda) VH: QVQLVQSGAEVKKPGASVKVSCKASGYTFTSYDIHWVRQAPGQGLEWMGWLNPNSGNTGYAQKFQGRVTMTADRSTSTAYMELSSLRSEDTAVYYCAREVPETAAFEYWGQGTLVTVSS VL: QSVLTQPPSVSGAPGQRVTISCTSSSSDIGAGLGVHWYQQLPGTAPKLLIEGYYNRPSGVPDRFSGSKSGTSASLTITGLLPEDEGDYYCQSYDGTLSALFGGGTKLTVLG |
| 23 | 10 | 320-472 (antibody, human IgG1, name in Kabat numbering, V domains shown, human IgG1, lambda) VH: QVQLVQSGAEVKKPGASVKVSCKASGYTFTSYDINWVRQAPGQGLEWMGWLNPNSGNTGYAQKFQGRVTMTADRSTSTAYMELSSLRSEDTAVYYCAREVPETAAFEYWGQGTLVTVSS VL: QSVLTQPPSVSGAPGQRVTISCTSSSSDIGAGLGVHWYQQLPGTAPKLLIEGYYNRPSGVPDRFSGSKSGTSASLTITGLLPEDEGDYYCQLYDGTLSALFGGGTKLTVLG |
